The record followed here is publication PMC8310136.

This data set deals with NT*MNV VPg (Murine norovirus (MNV), UniProt Q80J95 871-994). The data set is described as follows: competition; 100-fold excess over labelled PP9 RNA. The conditions noted are these: protein: recombinant, tags: N-terminal His6-StrepII-spidroin NT*-enterokinase site-GGSRS linker, label: none.

B1: ssDNA competitor (ssDNA)
DNA: TATGCGGGCGAAACTTCTGGGAATAGTCCTGACAACCCCTATTGCGATCAGCTCTTTTGCTAGCTCG
As to B1, the binding result is listed as “no binding”.

B2: dsDNA competitor (dsDNA)
DNA 1: B1 DNA
DNA 2: CGAGCTAGCAAAAGAGCTGATCGCAATAGGGGTTGTCAGGACTATTCCCAGAAGTTTCGCCCGCATA
With B2, the binding result (blunt) is reported as “no binding”.
